B1: CR6261 (antibody, V domains shown)
VH: EVQLVESGAEVKKPGSSVKVSCKASGGPFRSYAISWVRQAPGQGPEWMGGIIPIFGTTKYAPKFQGRVTITADDFAGTVYMELSSLRSEDTAMYYCAKHMGYQVRETMDVWGKGTTVTVSS
VL: QSVLTQPPSVSAAPGQKVTISCSGSSSNIGNDYVSWYQQLPGTAPKLLIYDNNKRPSGIPDRFSGSKSGTSATLGITGLQTGDEANYYCATWDRRPTAYVVFGGGTKLTVLG
B2: CR6261 (antibody, V domains shown)
VH: B1 VH
VL: B1 VL

Key:
146G7 [1] = biological target: T1, 146G7 (influenza A H1N1 A/Brisbane/59/2007); test: ratio against parental SEQ ID NO: 6
262B9 [2] = biological target: T2, 262B9 (influenza A H1N1 A/Brisbane/59/2007); test: ratio against parental SEQ ID NO: 6
189E10 [3] = biological target: T3, 189E10 (influenza A H1N1 A/Brisbane/59/2007); test: ratio against parental SEQ ID NO: 6
146G7 [4] = biological target: T1, 146G7; test: ELISA signal over HTRF expression signal
262B9 [5] = biological target: T2, 262B9; test: ELISA signal over HTRF expression signal
189E10 [6] = biological target: T3, 189E10; test: ELISA signal over HTRF expression signal
146G7 [7] = biological target: T1, 146G7; test: ELISA, coated CR6261, P. pastoris medium
262B9 [8] = biological target: T2, 262B9; test: ELISA, coated CR6261, P. pastoris medium
189E10 [9] = biological target: T3, 189E10; test: ELISA, coated CR6261, P. pastoris medium
s127H1-t2-cl18long = s127H1-t2-cl18long (influenza A virus H1N1 …, UniProt A8C8J4 18-529)

Binder | fold increase of ratio over parental H1 mini-HA (146G7 [1]) | fold increase of ratio over parental H1 mini-HA (262B9 [2]) | fold increase of ratio over parental H1 mini-HA (189E10 [3]) | ratio of CR6261 binding signal to HTRF signal (146G7 [4]) | ratio of CR6261 binding signal to HTRF signal (262B9 [5]) | ratio of CR6261 binding signal to HTRF signal (189E10 [6]) | CR6261 binding signal (146G7 [7]) | CR6261 binding signal (262B9 [8]) | CR6261 binding signal (189E10 [9]) | EC50 (s127H1-t2-cl18long) [µg/mL]
B1 | 1.71 | 1.66 | 1.74 | 10.2 | 9.89 | 10.3 | 534000 | 94700 | 189000 | –
B2 | – | – | – | – | – | – | – | – | – | 0.139
